Laboratory results from patent publication US11814439 (TG THERAPEUTICS, dated 2023).

Assays:
Assay in all cases: cell-based or functional assay
[1] = molecular target: T1, FcγIIIA Receptor on the effector cells (CD16 / FcγRIII) (human, UniProt P08637 17-254)
[2] = molecular target: T1, FcγIIIA Receptor on the effector cells …; remark: listed apart in the source
[3] = molecular target: C1q Receptor in the complement system (rabbit serum as the source of complement) (rabbit)
[4] = molecular target: T1, FcγIIIA Receptor on the effector cells …; remark: listed apart in the source

T1 sequence (P08637 17-254): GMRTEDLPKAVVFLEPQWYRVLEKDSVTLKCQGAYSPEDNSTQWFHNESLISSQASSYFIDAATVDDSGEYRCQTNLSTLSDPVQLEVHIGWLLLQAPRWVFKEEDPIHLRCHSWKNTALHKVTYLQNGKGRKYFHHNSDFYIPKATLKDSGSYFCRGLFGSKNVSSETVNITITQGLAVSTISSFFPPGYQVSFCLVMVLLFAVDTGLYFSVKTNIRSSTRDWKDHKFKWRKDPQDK

EC50 of ADCC assay Using Primary NK Cells [1]: 49000 ng/mL
ADCC EC50, fold lower than OCREVUS [2]: ~25 fold
CDC EC50 (Jeko-1 cells, rabbit complement) [3]: 670 ng/mL
ADCC EC50 (Raji target cells, KILR CD16a effector cells) [4]: 0.00242 ng/mL
B1: TG-1101 (TG Therapeutics, Inc.) (antibody, human IgG1, kappa)
heavy: not shown
light: QIVLSQSPAILSASPGEKVTMTCRASSSVSYMHWYQQKPGSSPKPWIYATSNLASGVPARFSGSGSGTSYSFTISRVEAEDAATYYCQQWTFNPPTFGGGTRLEIKRTVAAPSVFIFPPSDEQLKSGTASVVCLLNNFYPREAKVQWKVDNALQSGNSQESVTEQDSKDSTYSLSSTLTLSKADYEKHKVYACEVTHQGLSSPVTKSFNRGEC
